These results are taken from article PMC3658276, “Plant stem cell maintenance involves direct transcriptional repression of differentiation program”.

The target in the data set is T1, WUSCHEL (His-WUS) (UniProt Q9SB92 1-292).
T1 sequence: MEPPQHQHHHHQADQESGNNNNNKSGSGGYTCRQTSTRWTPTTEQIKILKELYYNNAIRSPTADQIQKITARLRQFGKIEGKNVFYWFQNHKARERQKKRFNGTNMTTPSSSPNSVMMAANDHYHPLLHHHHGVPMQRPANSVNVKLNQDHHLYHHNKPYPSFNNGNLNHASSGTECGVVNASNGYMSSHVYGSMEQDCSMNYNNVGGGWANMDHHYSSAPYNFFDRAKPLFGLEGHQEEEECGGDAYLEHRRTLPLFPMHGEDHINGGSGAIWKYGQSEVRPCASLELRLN
Nature of the data set: EMSA; supershift with anti-WUS antibody; EMSA conditions not given; as in Yadav et al 2011. As to conditions: protein: recombinant; tags: His; chain copies: 2; (radiolabeled). (A gel shift assay detects complexes by their altered migration in electrophoresis.)

B1: KAN1 -1100 oligo (dsDNA)
DNA 1: TACTGATATTTAATGTATATTTATCTCT
DNA 2: AGAGATAAATATACATTAAATATCAGTA
For the molecule B1, the binding result is “binds”.

B2: KAN1 1050 oligo (dsDNA)
DNA 1: TCTTACACTAATACTATATTTACACATG
DNA 2: CATGTGTAAATATAGTATTAGTGTAAGA
Turning to B2, the binding result is “binds”.
